Results taken from patent US20180009871A1 (INTARCIA THERAPEUTICS, published 2018).
Where no end group is shown, it is not given here. [ ]: non-standard residue; d: D form. Aib = CC(C)(N)C(=O)O

Assays:
[1] = molecular target: human GLP-1 receptor (GLP-1R) (human, UniProt P43220 24-463); assay: cell-based or functional assay
[2] = molecular target: human glucagon receptor (GCGR) (human, UniProt P47871 26-477); assay: cell-based or functional assay

human GLP-1 receptor (GLP-1R), sequence (P43220 24-463): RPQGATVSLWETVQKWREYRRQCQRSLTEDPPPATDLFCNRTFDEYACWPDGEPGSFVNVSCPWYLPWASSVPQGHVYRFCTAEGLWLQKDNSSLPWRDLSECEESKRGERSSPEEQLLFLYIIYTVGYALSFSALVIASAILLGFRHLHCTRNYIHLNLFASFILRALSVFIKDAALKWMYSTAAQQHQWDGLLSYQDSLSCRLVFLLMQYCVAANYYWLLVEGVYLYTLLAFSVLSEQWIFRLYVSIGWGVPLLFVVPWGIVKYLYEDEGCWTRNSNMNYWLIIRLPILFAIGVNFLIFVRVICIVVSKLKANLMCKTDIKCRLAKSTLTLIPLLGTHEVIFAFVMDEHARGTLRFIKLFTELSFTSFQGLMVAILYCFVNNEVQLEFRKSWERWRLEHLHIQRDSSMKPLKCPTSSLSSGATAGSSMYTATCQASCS

B1: Compound A45 (peptide)
peptide: YSHGTFTSDYSKYLD[Aib]KRAQEFV[Aib]WLEDEKRNKPPPA-OH
modifications: N-terminus assumed
SMILES: CC(C)C[C@H](NC(=O)[C@H](Cc1ccc(O)cc1)NC(=O)[C@H](CCCCN)NC(=O)[C@H](CO)NC(=O)[C@H](Cc1ccc(O)cc1)NC(=O)[C@H](CC(=O)O)NC(=O)[C@H](CO)NC(=O)[C@@H](NC(=O)[C@H](Cc1ccccc1)NC(=O)[C@@H](NC(=O)CNC(=O)[C@H](Cc1c[nH]cn1)NC(=O)[C@H](CO)NC(=O)[C@@H](N)Cc1ccc(O)cc1)[C@@H](C)O)[C@@H](C)O)C(=O)N[C@@H](CC(=O)O)C(=O)NC(C)(C)C(=O)N[C@@H](CCCCN)C(=O)N[C@@H](CCCNC(=N)N)C(=O)N[C@@H](C)C(=O)N[C@@H](CCC(N)=O)C(=O)N[C@@H](CCC(=O)O)C(=O)N[C@@H](Cc1ccccc1)C(=O)N[C@H](C(=O)NC(C)(C)C(=O)N[C@@H](Cc1c[nH]c2ccccc12)C(=O)N[C@@H](CC(C)C)C(=O)N[C@@H](CCC(=O)O)C(=O)N[C@@H](CC(=O)O)C(=O)N[C@@H](CCC(=O)O)C(=O)N[C@@H](CCCCN)C(=O)N[C@@H](CCCNC(=N)N)C(=O)N[C@@H](CC(N)=O)C(=O)N[C@@H](CCCCN)C(=O)N1CCC[C@H]1C(=O)N1CCC[C@H]1C(=O)N1CCC[C@H]1C(=O)N[C@@H](C)C(=O)O)C(C)C
hGLP1 pEC50 (cAMP) [1]: < 9 pEC50
hGCGR pEC50 (cAMP) [2]: 11.7 pEC50

B2: Compound A43 (peptide)
peptide: YSHGTFTSDYSKYLDKARAQEFVKWLEDEPSSGAPPPS-OH
hGLP1 pEC50 (cAMP) [1]: < 9 pEC50
hGCGR pEC50 (cAMP) [2]: 11.8 pEC50

B3: Compound A35 (peptide)
peptide: YTHGTFTSDYSKWLD[Aib]ARAQEFV[Aib]WLEDEPSSGAPPPS-OH
modifications: N-terminus assumed
SMILES: CC(C)C[C@H](NC(=O)[C@H](Cc1c[nH]c2ccccc12)NC(=O)[C@H](CCCCN)NC(=O)[C@H](CO)NC(=O)[C@H](Cc1ccc(O)cc1)NC(=O)[C@H](CC(=O)O)NC(=O)[C@H](CO)NC(=O)[C@@H](NC(=O)[C@H](Cc1ccccc1)NC(=O)[C@@H](NC(=O)CNC(=O)[C@H](Cc1c[nH]cn1)NC(=O)[C@@H](NC(=O)[C@@H](N)Cc1ccc(O)cc1)[C@@H](C)O)[C@@H](C)O)[C@@H](C)O)C(=O)N[C@@H](CC(=O)O)C(=O)NC(C)(C)C(=O)N[C@@H](C)C(=O)N[C@@H](CCCNC(=N)N)C(=O)N[C@@H](C)C(=O)N[C@@H](CCC(N)=O)C(=O)N[C@@H](CCC(=O)O)C(=O)N[C@@H](Cc1ccccc1)C(=O)N[C@H](C(=O)NC(C)(C)C(=O)N[C@@H](Cc1c[nH]c2ccccc12)C(=O)N[C@@H](CC(C)C)C(=O)N[C@@H](CCC(=O)O)C(=O)N[C@@H](CC(=O)O)C(=O)N[C@@H](CCC(=O)O)C(=O)N1CCC[C@H]1C(=O)N[C@@H](CO)C(=O)N[C@@H](CO)C(=O)NCC(=O)N[C@@H](C)C(=O)N1CCC[C@H]1C(=O)N1CCC[C@H]1C(=O)N1CCC[C@H]1C(=O)N[C@@H](CO)C(=O)O)C(C)C
hGLP1 pEC50 (cAMP) [1]: < 9 pEC50
hGCGR pEC50 (cAMP) [2]: 13.2 pEC50

B4: Compound A41 (peptide)
peptide: YTHGTFTSDHSKWLDEARAQEFVKWLEDEPSSGAPPPS-OH
hGLP1 pEC50 (cAMP) [1]: < 9 pEC50
hGCGR pEC50 (cAMP) [2]: 9.2 pEC50

B5: Compound A39 (peptide)
peptide: YTHGTFTSDYSKWLDSARAQEFVKWLEDEPSSGAPPPS-OH
hGLP1 pEC50 (cAMP) [1]: < 9 pEC50
hGCGR pEC50 (cAMP) [2]: 9.4 pEC50

B6: Compound A42 (peptide)
peptide: YTHGTFTSDYSKWLDSKRAQEFVKWLEDEPSSGAPPPS-OH
hGLP1 pEC50 (cAMP) [1]: < 9 pEC50
hGCGR pEC50 (cAMP) [2]: 9.4 pEC50

B7: Compound A38 (peptide)
peptide: YSHGTFTSDYSKWLDSARAQEFVKWLEDEPSSGAPPPS-OH
hGLP1 pEC50 (cAMP) [1]: < 9 pEC50
hGCGR pEC50 (cAMP) [2]: 13.7 pEC50

B8: Compound A36 (peptide)
peptide: YSHGTFTSDHSKWLD[Aib]ARAQEFV[Aib]WLEDEPSSGAPPPS-OH
modifications: N-terminus assumed
SMILES: CC(C)C[C@H](NC(=O)[C@H](Cc1c[nH]c2ccccc12)NC(=O)[C@H](CCCCN)NC(=O)[C@H](CO)NC(=O)[C@H](Cc1c[nH]cn1)NC(=O)[C@H](CC(=O)O)NC(=O)[C@H](CO)NC(=O)[C@@H](NC(=O)[C@H](Cc1ccccc1)NC(=O)[C@@H](NC(=O)CNC(=O)[C@H](Cc1c[nH]cn1)NC(=O)[C@H](CO)NC(=O)[C@@H](N)Cc1ccc(O)cc1)[C@@H](C)O)[C@@H](C)O)C(=O)N[C@@H](CC(=O)O)C(=O)NC(C)(C)C(=O)N[C@@H](C)C(=O)N[C@@H](CCCNC(=N)N)C(=O)N[C@@H](C)C(=O)N[C@@H](CCC(N)=O)C(=O)N[C@@H](CCC(=O)O)C(=O)N[C@@H](Cc1ccccc1)C(=O)N[C@H](C(=O)NC(C)(C)C(=O)N[C@@H](Cc1c[nH]c2ccccc12)C(=O)N[C@@H](CC(C)C)C(=O)N[C@@H](CCC(=O)O)C(=O)N[C@@H](CC(=O)O)C(=O)N[C@@H](CCC(=O)O)C(=O)N1CCC[C@H]1C(=O)N[C@@H](CO)C(=O)N[C@@H](CO)C(=O)NCC(=O)N[C@@H](C)C(=O)N1CCC[C@H]1C(=O)N1CCC[C@H]1C(=O)N1CCC[C@H]1C(=O)N[C@@H](CO)C(=O)O)C(C)C
hGLP1 pEC50 (cAMP) [1]: < 9 pEC50
hGCGR pEC50 (cAMP) [2]: 10.2 pEC50

B9: Compound A44 (peptide)
peptide: YSHGTFTSDYSKYLDQARAQEFVKWLEDEPSSGAPPPS-OH
hGLP1 pEC50 (cAMP) [1]: < 9 pEC50
hGCGR pEC50 (cAMP) [2]: 11.9 pEC50

B10: Compound A46 (peptide)
peptide: YSHGTFTSDYSKYLD[Aib]KRAQEFV[Aib]WLEDEKRNKPPIA-OH
modifications: N-terminus assumed
SMILES: CC[C@H](C)[C@H](NC(=O)[C@@H]1CCCN1C(=O)[C@@H]1CCCN1C(=O)[C@H](CCCCN)NC(=O)[C@H](CC(N)=O)NC(=O)[C@H](CCCNC(=N)N)NC(=O)[C@H](CCCCN)NC(=O)[C@H](CCC(=O)O)NC(=O)[C@H](CC(=O)O)NC(=O)[C@H](CCC(=O)O)NC(=O)[C@H](CC(C)C)NC(=O)[C@H](Cc1c[nH]c2ccccc12)NC(=O)C(C)(C)NC(=O)[C@@H](NC(=O)[C@H](Cc1ccccc1)NC(=O)[C@H](CCC(=O)O)NC(=O)[C@H](CCC(N)=O)NC(=O)[C@H](C)NC(=O)[C@H](CCCNC(=N)N)NC(=O)[C@H](CCCCN)NC(=O)C(C)(C)NC(=O)[C@H](CC(=O)O)NC(=O)[C@H](CC(C)C)NC(=O)[C@H](Cc1ccc(O)cc1)NC(=O)[C@H](CCCCN)NC(=O)[C@H](CO)NC(=O)[C@H](Cc1ccc(O)cc1)NC(=O)[C@H](CC(=O)O)NC(=O)[C@H](CO)NC(=O)[C@@H](NC(=O)[C@H](Cc1ccccc1)NC(=O)[C@@H](NC(=O)CNC(=O)[C@H](Cc1c[nH]cn1)NC(=O)[C@H](CO)NC(=O)[C@@H](N)Cc1ccc(O)cc1)[C@@H](C)O)[C@@H](C)O)C(C)C)C(=O)N[C@@H](C)C(=O)O
hGLP1 pEC50 (cAMP) [1]: < 9 pEC50
hGCGR pEC50 (cAMP) [2]: 12.5 pEC50

B11: Compound A40 (peptide)
peptide: YSHGTFTSDHSKWLDSARAQEFVKWLEDEPSSGAPPPS-OH
hGLP1 pEC50 (cAMP) [1]: < 9 pEC50
hGCGR pEC50 (cAMP) [2]: 10.1 pEC50

B12: Compound A37 (peptide)
peptide: YSHGTFTSDYSKYLDSARAQEFVKWLEDEPSSGAPPPS-OH
hGLP1 pEC50 (cAMP) [1]: < 9 pEC50
hGCGR pEC50 (cAMP) [2]: 13 pEC50

B13: Compound A47 (peptide)
peptide: YSHGTFTSDYSKYLD[Aib]KRAQEFV[Aib]WLEDEKRNKNPPS-OH
modifications: N-terminus assumed
SMILES: CC(C)C[C@H](NC(=O)[C@H](Cc1ccc(O)cc1)NC(=O)[C@H](CCCCN)NC(=O)[C@H](CO)NC(=O)[C@H](Cc1ccc(O)cc1)NC(=O)[C@H](CC(=O)O)NC(=O)[C@H](CO)NC(=O)[C@@H](NC(=O)[C@H](Cc1ccccc1)NC(=O)[C@@H](NC(=O)CNC(=O)[C@H](Cc1c[nH]cn1)NC(=O)[C@H](CO)NC(=O)[C@@H](N)Cc1ccc(O)cc1)[C@@H](C)O)[C@@H](C)O)C(=O)N[C@@H](CC(=O)O)C(=O)NC(C)(C)C(=O)N[C@@H](CCCCN)C(=O)N[C@@H](CCCNC(=N)N)C(=O)N[C@@H](C)C(=O)N[C@@H](CCC(N)=O)C(=O)N[C@@H](CCC(=O)O)C(=O)N[C@@H](Cc1ccccc1)C(=O)N[C@H](C(=O)NC(C)(C)C(=O)N[C@@H](Cc1c[nH]c2ccccc12)C(=O)N[C@@H](CC(C)C)C(=O)N[C@@H](CCC(=O)O)C(=O)N[C@@H](CC(=O)O)C(=O)N[C@@H](CCC(=O)O)C(=O)N[C@@H](CCCCN)C(=O)N[C@@H](CCCNC(=N)N)C(=O)N[C@@H](CC(N)=O)C(=O)N[C@@H](CCCCN)C(=O)N[C@@H](CC(N)=O)C(=O)N1CCC[C@H]1C(=O)N1CCC[C@H]1C(=O)N[C@@H](CO)C(=O)O)C(C)C
hGLP1 pEC50 (cAMP) [1]: < 9 pEC50
hGCGR pEC50 (cAMP) [2]: 11.5 pEC50
